Here are results for two molecules from article PMC8948278, “Antibody-dependent enhancement (ADE) of SARS-CoV-2 pseudoviral infection requires FcγRIIB and virus-antibody complex with bivalent interaction” (Communications Biology, 2022).

By koff is commonly meant the rate constant with which the complex falls apart.

This assay addresses Recombinant SARS-CoV-2 S trimer protein (ACRO Biosystems SPN-C52H9) (SARS-CoV-2, Wuhan-Hu-1 (reference spike), UniProt P0DTC2). The assay is described as follows: SPR. The conditions noted are these: both partners purified.

B1: KIH format bivalent MW05 (MW05/KIH) (antibody, V domains shown)
VH: EVQLVQSGAEVKKPGSSVKVSCKASGGTFSSYAISWVRQAPGQGLEWMGRIIPIFGSSNYAQKFQGRVTITADESTSTAYMELSSLRSEDTAVYYCAESPLGGGSGYSVSWFDPWGQGTLVTVSS
VL: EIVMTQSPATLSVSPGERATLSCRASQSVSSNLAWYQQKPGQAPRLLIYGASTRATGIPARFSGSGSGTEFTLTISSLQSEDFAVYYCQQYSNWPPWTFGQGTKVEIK
notes: also called knob-in-hole format bivalent mAb; copies: + + 2
For B1, the koff was 8.52e-05 s⁻¹.

B2: KIH format bivalent MW07 (MW07/KIH) (antibody, V domains shown)
VH: EVQLVESGGGLVQPGGSLRLSCAASGFTFSSYWMSWVRQAPGKGLEWVANIKQDASEKYYLDSLKGRFTISRDNAKNSLYLQMNSLRAEDTAVYYCARDLGILWFGDYPWGQGTLVTVSS
VL: DIQMTQSPSSLSASVGDRVTITCRASQGISNSLAWYQQKPGKAPKLLLYAASTLESGVPSRFSGSGSGTDFTLTISSLQPEDFATYYCQQFYSTPRTFGQGTKVEIK
notes: as for B1
With B2, the off-rate constant (koff) is 3.02e-05 s⁻¹.
